Experimental data as given in patent US20090130652A1 (CRUCELL HOLLAND B V, published 2009).

B1: CR4354L4261 (antibody, human IgG1, lambda, V domains shown)
VH: QVQLVQSGAEVRKPGASVKVSCKASGYTFTHYYMHWVRQAPGQGLEWMGIINPSGGSTTYAQKLQGRVTMTRDTSTSTVYMELSSLRSEDTAVYYCARDWGSNYVWGSYPKYWGQGTLVTVSS
VL: TQAVLTQPSSASGTPGQRVTISCSGSSPNIGSNNVNWYQQLPGTAPKLLIYSNNQRPSGVPGRFSGSKSGTSASLAISGLQSEDEADYYCAAWDDGLSGNYVFGAGTQLTVLS
B2: CR4354L4328 (antibody, human IgG1, lambda, V domains shown)
VH: B1 VH
VL: TQAVLTQPSSVSGTPGQRVTISCSGSSSNIGSNTVNWYQQLPGTAPKLLIYGNNNRPSGVPARFSGSRSGTSASLAISGLRSEDEADYYCAAWDDSLNGPVFGGGTKLTVLG
B3: CR4354L4335 (antibody, human IgG1, lambda, V domains shown)
VH: B1 VH
VL: TQSVLTQPPSTSGTPGQRVTISCSGSDSNIGSNTVNWYQQLPGMAPKLLIYRNNQRPSGVPDRFSGSKSGTSASLAISGLQSEDEADYFCASWDANLGGPLFGGGTKVTVLG

Target: WNV strain 385-99 (infectious, as used in the virus neutralization assay)
Experiment: cell-based or functional assay

Row | Binder | Potency (%) in 66% neutralization concentration, VNA [%]
1 | B1 | 106
2 | B2 | 286
3 | B3 | 60
